The text below walks through data of PMC3466262, “Crystal Structure of ATV^ORF273, a New Fold for a Thermo- and Acido-Stable Protein from the Acidianus Two-Tailed Virus” (PLoS ONE, 2012).

Data set [1] concerns the molecule itself. Nature of the data set: SEC-MALS; Shodex KW803 column, 20 mM Hepes pH 7.4, 100 mM NaCl; protein injected at 4 mg/mL (121 uM). Background: In gel filtration, larger molecules generally elute earlier.
Data set [2] deals with the molecule itself. Nature of the data set: SEC-MALS; Shodex KW803 column, 20 mM citrate buffer pH 3.6, 150 mM NaCl; protein injected at 4 mg/mL (121 uM).

B1: ATV^ORF273, virion protein of the Acidianus two-tailed virus (recombinant, C-terminal hexa-histidine tag) (natural protein)
chain: MGEKITEEREFQSISEIPEEEIDATNDEEKLADIVENEIEKEIRKSKTRKCKTIENFYYYILRDGKIYPASDYDIEVEKGKRSANDIYAFVETDVTRDFDEFLFDIDYGLPSISDILKFYLEKAGFRIANEVPTPNLKYYIHAVVEFGEDRPQYLAVNIYDIDSLARALRIPQIVEQKLGNKPRTITADEFNDIERIVAEEQPILAGYTYDEALRIPYHYYVDHNNSFKDDALKIAHAYLQLFPTPYQVCYEWKARWFNKIDCLKLERLKPSS
notes: ATV ORF273, virion protein of Acidianus two-tailed virus, UniProt Q3V4T6; native molar mass 32154 Da, recombinant protein 32977 Da; The printed masses (32154 Da native, 32977 Da recombinant) fit the whole ORF plus a His6 tag that is still on the protein; no cleavage of the tag is described; Oligomeric state depends on pH: tetramer at pH 7.4 and 8.5, dimer at pH 3.6; The models hold residues …
Consider B1, for which the “stoichiometry N” value in data set [1] was 4; in data set [2] it was 2.

The stoichiometry N is a count of units in the complex or per binding partner.
